From the supplement of paper PMC12764529 come the findings set out here.

The nature of data set [1]: folding stability dG unfold from chymotrypsin proteolysis; higher = more stable. The procedure, abridged: (§1)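 Sequencing followed digestion of designed mini-proteins with trypsin and chymotrypsin, each at 11 concentrations in threefold dilutions together with a no-protease condition. The mini-proteins were under 80 residues, had no cysteine, sat in a PA-tagged cDNA display construct, and were kept only if AlphaFold2 dimer inter-PAE was above 15. From the counts, Bayesian fitting gave K50, and unfolding free energy was derived against a sequence-predicted unfolded-state K50 and a shared folded-state K50, per protease or combined.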

Data set [2] can be described thus: folding stability dG unfold from trypsin proteolysis; higher = more stable. The procedure, abridged: as §1
Data set [3] in a line: folding stability dG unfold (combined trypsin and chymotrypsin); higher = more stable. Summed up:
as §1

± gives the half width of the 95% confidence interval.

For “SAGGSAGGSAGGSSMTLVTEETELPSPLRKVTKYTIDPKNPGKITSETTWYDPEGKPLGSAGGSAGGSAGGS [r4_297_JUSTAS]”, the “folding stability dG unfold” value in data set [1] was 0.362 ± 0.17 kcal/mol; in data set [2] it was -0.441 ± 0.33 kcal/mol; in data set [3] it was 0.0774 ± 0.17 kcal/mol.

On to “SAGGSAGGSAGGSSMVFELDGVRIVVTEDEVVFYPPETGKPVVLPMSNPEVQELIKELVSAGGSAGGSAGGS [r4_353_TrMRF]”, for which the figures for the “folding stability dG unfold” value in data set [1], in data set [2] and in data set [3] were 1.78 ± 0.039 kcal/mol, 1.87 ± 0.054 kcal/mol and 1.82 ± 0.083 kcal/mol, respectively.

For the sequence “SAGGSAGGSAGGSSTILIPSSTSEEYAESLAKELKKKGNVKTSFDPSTGVLVLTLPGGSSSAGGSAGGSAGG [r7_219_JUSTAS]”, the “folding stability dG unfold” value was 0.0516 ± 0.2 kcal/mol in data set [1], -0.962 ± 0.59 kcal/mol in data set [2] and -0.17 ± 0.21 kcal/mol in data set [3].

Take “SAGGSAGGSAGGSTGITSTFFDPKTGTVTTTTLVPSTGTTTTTVTPVTIPGPAATTTLTSAGGSAGGSAGGS [r10_331_JUSTAS]”: the “folding stability dG unfold” value in data set [1] came out at 0.55 ± 0.052 kcal/mol; in data set [2] it was 1.31 ± 0.067 kcal/mol; in data set [3], 0.888 ± 0.045 kcal/mol.

Take “SAGGSAGGSAGGSTITISPEQPVEGLTIELDGKTIKVVSYTPEPKEGEPLLKVTVERLDSAGGSAGGSAGGS [r10_1098_JUSTAS]”: the “folding stability dG unfold” value was -0.489 ± 0.33 kcal/mol in data set [1], -1.28 ± 0.86 kcal/mol in data set [2] and -0.771 ± 0.81 kcal/mol in data set [3].

Take “SAGGSAGGSAGGSTLQSNASGIFTLYLAGSNLTVTLSKAELPKIPADFPIPSSATFTAGSAGGSAGGSAGGS [r4_91_JUSTAS]”: the “folding stability dG unfold” value in data set [1] is -0.41 ± 0.51 kcal/mol; in data set [2], 0.215 ± 0.16 kcal/mol; in data set [3], -0.196 ± 0.41 kcal/mol.

Consider “SAGGSAGGSAGGSTPTPDGSPVEITLPDGTVVTFDPATNSITIATRTPDSVSTTPIPAAASAGGSAGGSAGG [r7_527_JUSTAS]”, for which the results for the “folding stability dG unfold” value in data set [1], in data set [2] and in data set [3] were 1.08 ± 0.037 kcal/mol, 1.34 ± 0.031 kcal/mol and 1.2 ± 0.035 kcal/mol, respectively.

On to “SAGGSAGGSAGGSVPSDVTVSILEIEPKEDKYLVLLRVPENGTLIEREFESLEEAKELLSAGGSAGGSAGGS [r10_1038_JUSTAS]”, for which the “folding stability dG unfold” value in data set [1] was -0.51 ± 0.21 kcal/mol; in data set [2], 1.16 ± 0.033 kcal/mol; in data set [3] it was 0.645 ± 0.088 kcal/mol.

For the sequence “SAGGSAGGSAGGSVTVERYPDGKVTTTTTDPTRPVTTVTLAEVEPGPGKVLTETVTPVPSAGGSAGGSAGGS [r10_613_JUSTAS]”, the “folding stability dG unfold” value was 1.3 ± 0.14 kcal/mol in data set [1], 0.835 ± 0.057 kcal/mol in data set [2] and 1.12 ± 0.1 kcal/mol in data set [3].

As to “SAGGSAGGSAGGSVVPTTSYSPDGTLTLTTETVTPSSNGLTVTSSTTVRPLPTPASPAASAGGSAGGSAGGS [r10_1200_JUSTAS]”, the “folding stability dG unfold” value in data set [1] was 1.01 ± 0.039 kcal/mol; in data set [2], 1.35 ± 0.18 kcal/mol; in data set [3], 1.04 ± 0.11 kcal/mol.

“SAGGSAGGSAGGSVVTRLPNGSYRYTVTRVSFDPKTGTWSSETTVLTVPPDRPVEIPPGSAGGSAGGSAGGS [r4_48_JUSTAS]”: the figures for the “folding stability dG unfold” value in data set [1], in data set [2] and in data set [3] were 2.26 ± 0.11 kcal/mol, 1.14 ± 0.049 kcal/mol and 1.89 ± 0.096 kcal/mol, respectively.

Take “SAGGSAGGSAGGSVWIMIPLEEIKDLLPPGWTVEVEPQPMPNNGYIMVPVEIVPPDNAKSAGGSAGGSAGGS [r4_119_TrROS]”: the “folding stability dG unfold” value in data set [1] came to 0.861 ± 0.13 kcal/mol; in data set [2], 0.0715 ± 0.047 kcal/mol; in data set [3], 0.552 ± 0.16 kcal/mol.

For the sequence “SAGGSAGGSAGGSWTVTKEISREGDKVYISTVTTYVNPNGTPVTETETKEISPEEVAELESAGGSAGGSAGG [r11_690_JUSTAS]”, the “folding stability dG unfold” value in data set [1] was 1.11 ± 0.14 kcal/mol; in data set [2], 0.964 ± 0.037 kcal/mol; in data set [3], 1.11 ± 0.11 kcal/mol.

Take “SAGGSAGGSAGGVAVPKEGIEEFISQLPPDTVVTLYDPETGKDIKVTVSNGKVTISPEGSAGGSAGGSAGGS [r10_137_JUSTAS]”: the figures for the “folding stability dG unfold” value in data set [1], in data set [2] and in data set [3] were 1.02 ± 0.12 kcal/mol, 1.29 ± 0.12 kcal/mol and 1.17 ± 0.12 kcal/mol, respectively.

With “SAGGSAGGSAGGVEELKKALEKAGFKVVKVEVTEVKNPETKETTTKITVTLEDGSKLTITSAGGSAGGSAGG [r7_337_TrROS_Hall]”, the “folding stability dG unfold” value in data set [1] amounted to 3.63 ± 0.058 kcal/mol; in data set [2], 3.95 ± 0.2 kcal/mol; in data set [3], 3.72 ± 0.11 kcal/mol.

In the case of “SAGGSAGGSAGGVIKTFTSPDNKKYTVTVNKDGSVTVETFDPETGKKSISTVSAAEASLSAGGSAGGSAGGS [r10_838_JUSTAS]”, the “folding stability dG unfold” value in data set [1] was found to be 0.828 ± 0.066 kcal/mol; in data set [2] it was 1.32 ± 0.029 kcal/mol; in data set [3], 1.18 ± 0.063 kcal/mol.

As for “SAGGSAGGSAGGVKEFDALAGGVPVKVKVYPDPDGNPRVEVIFPDGSKVTLSADEPLNLSAGGSAGGSAGGS [r10_989_TrMRF]”, the entries for the “folding stability dG unfold” value in data set [1], in data set [2] and in data set [3] were 1.58 ± 0.08 kcal/mol, 2.26 ± 0.067 kcal/mol and 1.87 ± 0.068 kcal/mol, respectively.

Turning to “SAGGSAGGSAGGVKKGDKVTVLRVRLELKIKVEKTEDGSLKLTAELKLEISLVTVTAPDSAGGSAGGSAGGS [r10_297_TrROS_Hall]”, the “folding stability dG unfold” value was 5.2 ± 0.15 kcal/mol in data set [1], 3.53 ± 0.14 kcal/mol in data set [2] and 5.06 ± 0.21 kcal/mol in data set [3].
